Assay results reported in patent publication US20240029824A1 (University of Washington, published 2024).
Numbering of substitutions follows the chain as printed. Each block holds one binder with its values, some of them ahead of it.

Legend:
[1] = biological target: T1, DHT03_variant_ABCD-1 chain D; assay: native MS; loop-connectivity variant of DHT03, chains of one ABCD heterotetramer
T1 chain: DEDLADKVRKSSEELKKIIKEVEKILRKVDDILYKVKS

[2] = biological target: T2, DHT03 chain C (SEQ ID NO: 59); assay: tricistronic expression, SEC, native MS; chains of one ABC heterotrimer
T2 chain: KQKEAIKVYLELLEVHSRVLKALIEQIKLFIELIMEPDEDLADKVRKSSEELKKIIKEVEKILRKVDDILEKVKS
Source text: Genes encoding 85 heterotrimers in a tricistronic expression vector were obtained, and the proteins were expressed in E. coli and purified via IMAC with only one chain having the 6×His-tag. Nine of the designs (FIG. 3a) had monodisperse SEC peaks (FIG. 3b), were almost exclusively ABC by nMS, and had good SAXS fits to the design models (Table 7). […] Eight of the designs are parallel heterotrimers, while DHTO9 is an antiparallel heterotrimer. […] For 3 other designs, only the ABC heterotrimer was determined to form by nMS (when the respective SEC fraction was analyzed) but the heterotrimer SEC peak was preceded by soluble aggregate that would make building with these constructs difficult downstream. We explored the dependence of cooperativity on connectivity between the three chains by changing the positions of the loops across different helices in DHT03, while keeping the rest of the interface intact. […] The ability to sustain alternate loop closures increases the number of heteromeric building blocks available for future nanostructure assembly applications and may enable rigid fusion of functional domains to the different termini available.
Samples were analyzed by online buffer exchange native mass spectrometry (nMS) to evaluate sample purity and accurately determine oligomeric states⁴². […]

[3] = biological target: T2, DHT03 chain C (SEQ ID NO: 59); assay: X-ray crystal structure, 3.35 A
Method: Purified DHT03_2arm_A21/B21/C (long) protein at a concentration of 41 mg/mL was used to conduct sitting drop, vapor-diffusion crystallization trials using the JCSG Core I-IV screens (NeXtal Biotechnologies). Crystals of DHT03_2arm_A21/B21/C long grew from drops consisting of 100 nL protein plus 100 nL of a reservoir solution consisting of 2M (NH4)2SO4, 0.1M sodium acetate pH4.6 at 18° C., and were cryoprotected by supplementing the reservoir solution with 2.2M sodium malonate pH5. Native diffraction data was collected at APS beamline APS-23-ID-B, indexed to P1 and reduced using XDS⁴⁸. The structure was phased by molecular replacement using Phaser™. The chain A of a set of ˜49 lowest energy predicted models from Rosetta™ were used as search models. Several of these models gave clear solutions. Chain B and Chain C were fitted manually in Coot™ and rigid body refinement by Phenix™. The following model building and refinement were done by Coot™ and Phenix™.

[4] = biological target: T3, DHT03_2arm_A21/B21/C long chain B; assay: co-expression, SEC, native MS, SAXS; chains of one ABC heterotrimer
T3 chain: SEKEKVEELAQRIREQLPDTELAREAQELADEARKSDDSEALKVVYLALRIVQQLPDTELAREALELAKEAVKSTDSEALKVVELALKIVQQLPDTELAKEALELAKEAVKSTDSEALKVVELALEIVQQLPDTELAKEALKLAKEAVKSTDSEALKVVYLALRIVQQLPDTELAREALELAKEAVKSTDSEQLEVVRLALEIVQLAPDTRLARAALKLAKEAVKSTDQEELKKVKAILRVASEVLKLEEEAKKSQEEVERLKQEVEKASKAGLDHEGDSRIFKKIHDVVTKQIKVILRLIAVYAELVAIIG

[5] = biological target: T4, DHT03 chain C (SEQ ID NO: 65); assay: as above
T4 chain: T2 chain with K28L, M35V, E36R, E71Y

[6] = biological target: T5, DHT03_2arm_A21/B62/C chain B; assay: as above
T5 chain: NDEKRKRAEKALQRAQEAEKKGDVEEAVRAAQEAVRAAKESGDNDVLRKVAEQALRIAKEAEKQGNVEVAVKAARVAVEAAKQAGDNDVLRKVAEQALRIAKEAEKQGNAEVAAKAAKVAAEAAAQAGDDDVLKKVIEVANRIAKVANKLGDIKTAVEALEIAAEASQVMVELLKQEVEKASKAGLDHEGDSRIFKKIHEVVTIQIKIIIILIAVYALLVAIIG

[7] = biological target: T6, DHT03_2arm_A21/Bt18/C chain B; assay: as above
T6 chain: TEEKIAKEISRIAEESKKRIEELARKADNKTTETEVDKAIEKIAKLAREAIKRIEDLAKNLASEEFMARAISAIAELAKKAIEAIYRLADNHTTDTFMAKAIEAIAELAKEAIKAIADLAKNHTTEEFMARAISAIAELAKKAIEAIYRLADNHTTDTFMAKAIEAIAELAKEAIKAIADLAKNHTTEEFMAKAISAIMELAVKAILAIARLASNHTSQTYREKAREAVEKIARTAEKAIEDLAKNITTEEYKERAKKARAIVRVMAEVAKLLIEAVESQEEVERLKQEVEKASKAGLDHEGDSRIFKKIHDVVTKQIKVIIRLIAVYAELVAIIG

[8] = biological target: T7, DHT03_2arm_A21/B14/C chain B; assay: as above
T7 chain: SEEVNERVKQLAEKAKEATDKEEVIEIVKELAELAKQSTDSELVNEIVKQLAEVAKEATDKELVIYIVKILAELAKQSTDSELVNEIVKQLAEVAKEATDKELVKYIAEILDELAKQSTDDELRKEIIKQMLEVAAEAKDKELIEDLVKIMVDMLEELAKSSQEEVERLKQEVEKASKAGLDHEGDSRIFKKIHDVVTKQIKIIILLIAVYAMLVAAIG

[9] = biological target: T8, DHT03_3arm_A21/B21/C62 chain C; assay: individually purified chains mixed 1:1:1, heat annealed, SEC
T8 chain: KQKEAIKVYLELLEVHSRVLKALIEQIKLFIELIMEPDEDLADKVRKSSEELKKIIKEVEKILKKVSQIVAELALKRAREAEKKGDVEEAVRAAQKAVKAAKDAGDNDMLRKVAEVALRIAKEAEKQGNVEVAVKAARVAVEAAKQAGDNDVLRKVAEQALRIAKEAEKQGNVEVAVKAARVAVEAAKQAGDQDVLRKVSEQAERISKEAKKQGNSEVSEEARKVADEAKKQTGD
Source text: (§1) To test this idea, an equimolar amount of individually purified A, B, and C of DHT03_2arm_A21/B21/C were mixed together and run through an annealing protocol (see Methods) to allow these interfaces to reassemble in the presence of all components. A monodisperse SEC peak was observed belonging to the ABC heterotrimer state as confirmed by overlap with its SEC co-expressed tricistronic version (FIG. 3d). To explore the use of this approach for building, four different repeat protein fusions to chain C were annealed in the same manner and all four 3-arm heterotrimers were successfully reconstituted. […] The successful reconstitution of these ABC assemblies, following the independent expression and purification of each chain and explicit mixing at a 1:1:1 ratio, enables their use in conjunction with other de novo proteins to mediate the specific assembly of multi-component assemblies. Independent expression also has considerable advantages over tricistronic expression from a gene synthesis perspective as DNA becomes much more difficult and expensive to synthesize with increasing construct size.
(§2) To test whether the DHT03 components could properly assemble in the presence of other helical hairpin containing chains, as would be the case for more complex assemblies, we chose DHD131, a designed helical hairpin unit heterodimer containing buried hydrogen bond networks¹². […] We evaluated simultaneous reconstitution of DHD131 and DHT03_3arm_A21/B21/C82, since the size difference between the two constructs (if correctly assembled) should be detected by SEC. We separately expressed and individually purified the two chains of the heterodimer and the three chains of the heterotrimer, mixed them at a 1:1:1:1:1 ratio, and carried out annealing and SEC as described above.

[10] = biological target: T9, DHT03_3arm_A21/B21/C53 chain C; assay: as above
T9 chain: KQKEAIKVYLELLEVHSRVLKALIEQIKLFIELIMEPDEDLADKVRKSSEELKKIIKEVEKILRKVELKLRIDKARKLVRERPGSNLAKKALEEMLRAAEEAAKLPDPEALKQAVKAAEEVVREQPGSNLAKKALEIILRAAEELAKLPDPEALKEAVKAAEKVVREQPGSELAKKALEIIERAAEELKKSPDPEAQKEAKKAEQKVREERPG
Source text: as §1, §2

[11] = biological target: T10, DHT03_3arm_A21/B21/C82 chain C; assay: as above
T10 construct: also called chain C DHR82 fusion; chain C of C3-DHT03-01-DHR82 and C4-DHT03-01-DHR82
T10 chain: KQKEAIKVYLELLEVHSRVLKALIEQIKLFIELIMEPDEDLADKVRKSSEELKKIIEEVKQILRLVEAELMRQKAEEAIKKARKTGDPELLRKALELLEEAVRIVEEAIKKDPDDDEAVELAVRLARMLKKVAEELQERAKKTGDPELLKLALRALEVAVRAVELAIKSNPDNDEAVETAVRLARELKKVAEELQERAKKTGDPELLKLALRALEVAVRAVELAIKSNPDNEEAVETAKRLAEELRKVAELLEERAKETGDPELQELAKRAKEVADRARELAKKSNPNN
Source text: as §1, §2

[12] = biological target: T11, DHT03_3arm_A21/B21/C59 chain C; assay: as above
T11 chain: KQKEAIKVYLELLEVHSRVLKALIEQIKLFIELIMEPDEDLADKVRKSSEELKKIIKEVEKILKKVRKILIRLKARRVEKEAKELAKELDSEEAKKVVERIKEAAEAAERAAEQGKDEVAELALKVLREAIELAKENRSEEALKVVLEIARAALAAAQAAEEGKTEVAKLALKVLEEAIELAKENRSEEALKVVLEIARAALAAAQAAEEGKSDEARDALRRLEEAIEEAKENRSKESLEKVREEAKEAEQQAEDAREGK
Source text: as §1, §2

[13] = biological target: T12, DHT03_3arm chain B (B21, SEQ ID NO: 73); assay: as above
T12 construct: separately expressed with an N- or C-terminal 6xHis-tag
T12 chain: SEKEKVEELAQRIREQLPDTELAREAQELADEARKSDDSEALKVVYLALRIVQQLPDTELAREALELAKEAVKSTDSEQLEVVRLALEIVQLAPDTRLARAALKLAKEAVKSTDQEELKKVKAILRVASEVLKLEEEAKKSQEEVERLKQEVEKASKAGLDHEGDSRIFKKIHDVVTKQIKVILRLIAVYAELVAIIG
Source text: as §1, §2

- binding result [8]: binds
B4: DHT03 A21 fusion chain A (SEQ ID NO: 66) (designed binder)
chain: SEKEKVEELAQRIREQLPDTELAREAQELADEARKSDDSEALKVVYLALRIVQQLPDTELAREALELAKEAVKSTDSEALKVVYLALRIVQQLPDTELARLALELAKKAVEMTAQEVLAIAKAALKAAQAFPNTELAELMLRLAEVAARVMKELERNDEEIKKSDELDDESLLEDIVELLKEIIKLWKILVEVSDVMLKLIS

- binding result [9]: binds
- binding result [10]: binds
- binding result [11]: binds
- binding result [12]: binds
- binding result [13]: binds
B5: DHT03_3arm chain A (A21, SEQ ID NO: 72) (designed binder)
chain: B4 chain with E170A, E174A, E178R, K181A
notes: separately expressed with an N- or C-terminal 6xHis-tag

Continued, binder first:

B1: DHT03 chain A (designed binder)
chain: PEEEKLKELLKELKKVLDRLKKILERNDEEIKKSDELDDESLLEDIVELLKEIIKLWKILVELSDILLKLIS
- binding result [1]: binds
- binding result [2]: binds

B2: DHT03_2arm_A21/B21/C long chain A (designed binder)
chain: SEKEKVEELAQRIREQLPDTELAREAQELADEARKSDDSEALKVVYLALRIVQQLPDTELAREALELAKEAVKSTDSEALKVVELALKIVQQLPDTELAKEALKLAKEAVKSTDSEALKVVELALEIVQQLPDTELAKEALELAEEAVKSTDSEALKVVKLALEIVQQLPDTELAREALELAKEAVKSTDSEALKVVYLALRIVQQLPDTELARLALELAKKAVEMTAQEVLEIARAALKAAQAFPNTELAELMLRLAEVAARVMKELERNDEEIKKSDELDDESLLEDIVELLKEIIKLWKILVEVSDVMLKLIS
- binding result [3]: binds
- binding result [4]: binds

B3: DHT03 A21 fusion chain A (SEQ ID NO: 63) (designed binder)
chain: B4 chain with A119E
- binding result [5]: binds
- binding result [6]: binds
- binding result [7]: binds
